Patent US20160168210A1, “DERIVATIVES OF COLLAGEN-BINDING HAIRPIN PEPTIDES” (NATIONAL RESEARCH COUNCIL OF CANADA, priority 2012, published 2016)
Entries after “also recorded” stand apart in the source; their conditions may differ. Where no end group is shown, it is not given here.

B1: IRFTDGEWTWDDATKTWTWTE-GGS-VHpro10 (protein)
chain: IRFTDGEWTWDDATKTWTWTEGGSDVQLQASGGGLVQAGGSLRLTCAASGRTFDRYGWFRQAPGKEREFVASIGTRLHYADSVKGRFTISRDNAKSTAFLEMNSLKPEDTAVYYCAAAESTRNWYYKMSNDYDYWGQGTQVTVSSLEHHHHHH
modifications: WZ4-GGS-VHpro10 - molecule of Formula (I)
notes: trpzip4-VH conjugate, VHpro10 is a prothrombin-specific antibody VHH fragment

Tests used:
[1] = molecular target: rat-tail collagen type I (Rattus norvegicus, UniProt P02454+P02466); test: Collagen binding/responsiveness of peptides by proton NMR and H-15N HSQC spectroscopy; parameters: rat-tail collagen type I (at 4 mg/ml in 0.02 N acetic acid); purchased BD Bioscience; host or cells: rat tail (tissue-derived); settings: for response to / binding of collagen (NMR spectral perturbations): peptide free in solution vs in the presence of collagen; for NMR perturbations after collagen gelation (polymerization); reversibility of collagen binding: before vs after collagen gelation
Chain of rat-tail collagen type I (Rattus norvegicus, UniProt P02454+P02466) (P02454 152-1207 limits assumed): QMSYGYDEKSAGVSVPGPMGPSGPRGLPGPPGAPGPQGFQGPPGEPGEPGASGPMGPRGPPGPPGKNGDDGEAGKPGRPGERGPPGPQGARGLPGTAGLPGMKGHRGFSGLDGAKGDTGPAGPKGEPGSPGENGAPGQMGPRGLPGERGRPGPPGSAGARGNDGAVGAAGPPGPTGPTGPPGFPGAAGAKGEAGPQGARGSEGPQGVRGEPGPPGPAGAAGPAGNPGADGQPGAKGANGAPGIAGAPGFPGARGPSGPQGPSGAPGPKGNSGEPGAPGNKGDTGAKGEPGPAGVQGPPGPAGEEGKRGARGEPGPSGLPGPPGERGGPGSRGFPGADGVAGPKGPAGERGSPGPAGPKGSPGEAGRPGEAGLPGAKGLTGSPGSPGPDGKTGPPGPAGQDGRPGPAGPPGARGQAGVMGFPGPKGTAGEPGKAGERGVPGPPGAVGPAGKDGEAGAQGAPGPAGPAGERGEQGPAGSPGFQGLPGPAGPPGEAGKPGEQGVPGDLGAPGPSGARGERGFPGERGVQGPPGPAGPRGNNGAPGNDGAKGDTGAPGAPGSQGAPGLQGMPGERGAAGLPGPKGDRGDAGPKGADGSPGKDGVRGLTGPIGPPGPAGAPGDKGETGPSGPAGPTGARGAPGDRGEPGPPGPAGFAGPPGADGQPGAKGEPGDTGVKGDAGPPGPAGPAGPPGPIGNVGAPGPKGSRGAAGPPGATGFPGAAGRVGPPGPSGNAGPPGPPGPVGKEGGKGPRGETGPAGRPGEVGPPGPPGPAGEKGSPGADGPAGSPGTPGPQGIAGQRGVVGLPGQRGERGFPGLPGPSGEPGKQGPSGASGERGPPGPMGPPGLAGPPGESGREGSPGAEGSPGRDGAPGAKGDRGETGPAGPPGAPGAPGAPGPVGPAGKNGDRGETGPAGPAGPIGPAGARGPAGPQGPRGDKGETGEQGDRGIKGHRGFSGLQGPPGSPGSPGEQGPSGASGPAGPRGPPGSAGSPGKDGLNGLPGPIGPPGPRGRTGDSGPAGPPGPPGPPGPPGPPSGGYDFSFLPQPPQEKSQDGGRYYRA
Chain of rat-tail collagen type I (Rattus norvegicus, UniProt P02454+P02466) (P02466 86-1125 limits assumed): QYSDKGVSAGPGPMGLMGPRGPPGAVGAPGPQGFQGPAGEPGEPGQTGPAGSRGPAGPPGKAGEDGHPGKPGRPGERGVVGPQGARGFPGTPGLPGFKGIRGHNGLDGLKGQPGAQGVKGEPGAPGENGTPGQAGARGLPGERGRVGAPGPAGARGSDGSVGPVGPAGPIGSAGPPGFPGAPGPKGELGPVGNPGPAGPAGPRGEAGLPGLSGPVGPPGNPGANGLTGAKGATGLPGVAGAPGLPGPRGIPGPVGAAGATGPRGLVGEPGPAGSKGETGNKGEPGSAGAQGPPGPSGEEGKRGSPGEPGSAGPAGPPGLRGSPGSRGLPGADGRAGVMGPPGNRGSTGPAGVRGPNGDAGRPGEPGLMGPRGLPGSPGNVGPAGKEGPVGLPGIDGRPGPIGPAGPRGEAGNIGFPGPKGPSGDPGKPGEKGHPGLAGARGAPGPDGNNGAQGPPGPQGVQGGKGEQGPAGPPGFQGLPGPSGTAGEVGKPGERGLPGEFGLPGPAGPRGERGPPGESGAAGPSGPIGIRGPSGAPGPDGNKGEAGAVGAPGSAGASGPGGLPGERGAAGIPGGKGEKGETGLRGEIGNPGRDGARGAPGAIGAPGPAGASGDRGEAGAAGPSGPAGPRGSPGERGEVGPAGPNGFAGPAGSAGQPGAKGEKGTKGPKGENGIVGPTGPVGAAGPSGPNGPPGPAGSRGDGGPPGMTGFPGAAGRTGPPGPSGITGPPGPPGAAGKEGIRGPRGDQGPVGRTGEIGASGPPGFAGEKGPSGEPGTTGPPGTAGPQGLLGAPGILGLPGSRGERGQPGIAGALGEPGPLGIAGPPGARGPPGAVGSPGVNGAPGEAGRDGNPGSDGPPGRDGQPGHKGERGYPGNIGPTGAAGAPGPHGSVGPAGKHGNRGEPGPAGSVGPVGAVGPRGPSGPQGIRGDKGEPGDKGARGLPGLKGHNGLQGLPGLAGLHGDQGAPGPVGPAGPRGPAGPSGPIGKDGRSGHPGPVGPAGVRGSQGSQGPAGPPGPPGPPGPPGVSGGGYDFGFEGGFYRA
Description: Rat collagen hydrogels were prepared using rat-tail collagen type I (at 4 mg/ml in 0.02 N acetic acid) from BD Bioscience. A volume of 200 μL of the concentrated collagen solution was mixed with an equal volume of a buffer solution that was 400 mM in Tris-HCl and 400 mM in NaCl with a pH of 7.6 and with 50 μL of deuterated water (D2O). The sample mixture was transferred to an NMR tube followed by gentle mixing under agitation using a Thermolyne™ Max Mix-II apparatus. The NMR tube containing the collagen solution was placed within the RF probe housed in a 500 MHz super-conducting magnet (Bruker Avance-500 NMR spectrometer). The probe and sample bulk temperature was kept at 277 K for 3 hours and then elevated to 310 K at a rate of 1 degree/10 min to enable fibril alignment during a slow process of collagen gelation under the influence of the magnetic field (Ma 2008). The degree of fibril alignment of the collagen hydrogels was determined by use of deuterium NMR spectroscopy of the added D2O as described (Ma 2008). […]
Randomly-deposited collagen (hydrogel) matrix was prepared following the same procedure as above for partially aligned hydrogels, except that the RF probe and the NMR tube (or test tubes) containing the collagen solution were placed outside the magnetic field. Peptides containing collagen-binding hairpins were introduced into the hydrogels in two ways, the first with the collagen stock solution diluted (50:50 in volume ratio) by the buffer of 400 mM in Tris-HCl and 400 mM in NaCl at pH 7.6 containing the peptides of interest (i.e. for FIGS. 1A & 1D), which gelates in the presence of the added peptide. Alternatively, peptides in an appropriate buffer were introduced to the top of the hydrogel matrix (i.e. for FIGS. 1B & 1C) preformed in the NMR tube (or test tube) following the procedures described above. The behavior of the peptides in the hydrogels was followed by use of NMR H-^15N HSQC spectra for ^15N-labelled peptides (FIG. 1) and/or by use of one-dimensional proton NMR spectroscopy (FIG. 2).
Deuterium NMR spectroscopy studies of collagen responsiveness (and/or binding) for each peptide were carried out using a volume of (400-X) μL of a peptide dissolved in pure water mixed with 50 μL of a 10×PBS (phosphate-buffered saline) supplemented by sodium phosphate to a final concentration of 50 mM, with 50 μL of deuterated water (D2O) to form the reference sample (where X=0), or the peptide-collagen complex with X μL of rat-tail collagen type I (at 3.6 to 4 mg/ml in 0.02 N acetic acid from BD Bioscience) adjusted to achieve the desired final concentration of collagen. The pH value of the reference peptide samples was adjusted to match the pH of the final peptide-collagen complex in order to facilitate NMR spectral comparison. The peptide-collagen solutions were also subjected to gelation under magnetic field guidance followed by the measurement of fibril alignment (Ma 2008) as a semi-quantitative indication of peptide-collagen binding. Deuterium coupling constants measuring the degree of collagen fibril alignment were reduced by more than 1.0 Hz for MH2-wZIP4, by less than 0.5 Hz for MH2-wZIP6 and MH2-wZIP5, which parallel those observed for trpzip4, trpzip6, trpzip5 and the gb1 peptide (see Example 4). As a comparison, a solution of rat collagen at a concentration of 1.8 mg/ml in 200 mM Tris-Cl/200 mM NaCl at pH 7.6 formed a partially-aligned hydrogel with a deuterium coupling constant (Ma, 2008) of 2.5 Hz, while a solution of rat collagen at a concentration of 3 mg/ml in PBS (137 mM NaCl/2.68 mM KCl/10.1 mM Na2HPO4/1.76 mM KH2PO4) supplemented with Na2HPO4 to achieve a final concentration of 50 mM at pH 7.4 formed a partially-aligned hydrogel with a deuterium coupling constant of 4.8 Hz. A solution of human collagen at a concentration of 2.23 mg/ml in PBS supplemented with Na2HPO4 with a final concentration of 50 mM at pH 7.4 formed a partially-aligned hydrogel with a deuterium coupling constant of 1.3 Hz.

[2] = system: abdominal vena cava injured by FeCl3; settings: I.V. 30 minutes after FeCl3; about 1/4 of the highest FL4247 dose
Description: The application of ferric chloride on venous and arterial vessels was therefore the method used to produce the inflamed vasculature in the animal model. The carotid artery (arterial model) and the abdominal vena cava (venous model) were the chosen vessels for the imaging experiments with injured blood vessels undergong thrombosis.
The FeCl3 rat venous model of thrombosis was generated as described (Wang 2005) with some modifications. Briefly, rats were anesthetized with a 2.5% isoflurane/oxygen mixture and placed on a heat source (35-37° C.). The vena cava was then exposed via a midline incision and the region between the renal and iliolumbar veins was isolated. One minute after drug administration, a piece of filter paper (Gel Blot Paper, GB003, Whatman, Piscataway, N.J., USA; 7 mm diameter) saturated with 10% FeCl3 (EMD Chemicals Inc., Gibbstown, N.J., USA) was placed on the exposed surface of the vena cava and incubated for 3.5 minutes. During the application of FeCl3, the abdominal region was covered with aluminum foil. At the end of the incubation period, the filter paper was removed and the exposed viscera covered with a saline-soaked gauze.
In these imaging experiments, there were also a 30-minute waiting time after introduction of FeCl3 to the exposed vena cava to ensure the development of substantial vascular injury and the deposition of a thrombus.

[3] = molecular target: T1, rat-tail collagen type I (rat, UniProt P02454 152-1207; P02466 86-1125); test: proton NMR, free against with collagen
T1 construct: also called type-I collagen; unpolymerized collagen
T1 sequence (P02454 152-1207 limits assumed, chain 1 of 2): as the sequence (P02454 152-1207 limits assumed) above
T1 sequence (P02466 86-1125 limits assumed, chain 2 of 2): as the sequence (P02466 86-1125 limits assumed) above

Molecule	response to / binding of collagen (NMR spectral perturbations) [1]	also measured
GEWTWDDA (MH2-wZIP4-F2 - does not bind collagen)	lack of binding with collagen	
GEWTWDDATKTWTWTEGDFEEIPEEYL (MH2-wZIP4-F3 - molecule of Formula (I))	responds fully to collagen	
GEWTWNPATGKWTRTE (GEWTWNPATGKWTRTE-NH2) [CBLH2]	almost identical collagen-binding characteristics	NMR perturbations after collagen gelation (polymerization); reversibility of collagen binding [1]: certain degree of reversibility
GEWTYNPATGKWTWTE (GEWTYNPATGKWTWTE-NH2) [CBLH1]	almost identical collagen-binding characteristics	NMR perturbations after collagen gelation (polymerization); reversibility of collagen binding [1]: certain degree of reversibility
GEWVWDDATKTWHWTE (GEWVWDDATKTWHWTE-NH2) [trpzip8, reference compound]	CBLH peptides	
IRFTDGEWTWDDA (MH2-wZIP4-F1 - does not bind collagen)	does not respond to collagen binding	
IRFTDGGSWTWEGNKWTWKGGDFEEIPEEYLQ (MH2-wZIP1GG - molecule of Formula (I))	responds similarly to collagen binding	
KEWTWNPATGKWTRTE (KEWTWNPATGKWTRTE-NH2) [CBLH4]	almost identical collagen-binding characteristics	NMR perturbations after collagen gelation (polymerization); reversibility of collagen binding [1]: certain degree of reversibility
KEWTYNPATGKWTWTE [CBLH3]	almost identical collagen-binding characteristics	NMR perturbations after collagen gelation (polymerization); reversibility of collagen binding [1]: certain degree of reversibility
KKWTWNPATGKWTWQE (KKWTWNPATGKWTWQE-NH2) [HP5W4, reference compound]	CBLH peptides	
KTWNPATGKWTE (HP7 - does not bind collagen) [reference compound]	does not respond to the addition of collagen	
MH2-wZIP5: bivalent thrombin inhibitor containing the trpzip5 sequence (WO/2012/142696) (GEWTYDDATKTFTWTE; also: bivalent thrombin inhibitor, other parts, small tags and cut ends not in chain)	varying degrees of entrapment	NMR perturbations after collagen gelation (polymerization); reversibility of collagen binding [1]: reduced degree of proton NMR signal perturbations; also recorded: more pronounced loss of resonance perturbations as compared to MH2-wZIP6
MH2-wZIP6: bivalent thrombin inhibitor containing the trpzip6 sequence (WO/2012/142696) (GEWTWDDATKTWTVTE; also: bivalent thrombin inhibitor, other parts, small tags and cut ends not in chain)	varying degrees of entrapment	NMR perturbations after collagen gelation (polymerization); reversibility of collagen binding [1]: reduced degree of proton NMR signal perturbations
STWTWNGTNWTRNDGGC-Fluor750 (not fully specified (C-terminus); printed as STWTWNGTNWTRNDGGC-Fluor750; also: HiLyte Fluor750 conjugate) [FL4447]		fluorescence at the injured vena cava (whole-body and post-mortem imaging) [2]: somewhat reduced level of local fluorescence as compared to FL4247/FL4312
SWTVENGKVTWK (W2W11-trpzip2 - does not bind collagen) [reference compound]	loses the collagen-binding capacity	
SWTWEGNKWTWK (SWTWEGNKWTWK-NH2) [trpzip1, reference compound]	respond to collagen	

Molecule	response to / binding of collagen (NMR spectral perturbations) [1]	also measured
SWTWENGKWTWK (SWTWENGKWTWK-NH2) [trpzip2, reference compound]	collagen-binding linear hairpin (CBLH) peptide	
SWTYEGNKWTWK (SWTYEGNKWTWK-NH2) [Y4-trpzip1, reference compound]	retain the collagne-binding capacity	
SWTYEGNKYTWK (SWTYEGNKYTWK-NH2) [Y4Y9-trpzip1, reference compound]	retain the collagne-binding capacity	
SWTYENGKYTWK (SWTYENGKYTWK-NH2) [WYYW-trpzip2, reference compound]	retains a significant capacity for binding collagen	
TWRWNGSTAWTWS (CBLH peptide - pp-D7EUT8)	some proton NMR perturbations are observed	
TWTWNGSAWTWN (CBLH peptide - v4-gp120) [reference compound]	respond to collagen	
TWTWNGTNWTRN (CBLH peptide - v4-gp160)	responsive to the presence of collagen	
acetyl-STWTWNGSAWTWNEGGK (Ac-STWTWNGSAWTWNEGGK)	bind to type-I collagen	NMR perturbations after collagen gelation (polymerization); reversibility of collagen binding [1]: essentially irreversible
acetyl-STWTWNGTNWTRNDGGK (Ac-STWTWNGTNWTRNDGGK)	bind to type-I collagen	NMR perturbations after collagen gelation (polymerization); reversibility of collagen binding [1]: certain degree of reversibility
GEWTYDDATKTFTVTE-NH2 (also called gb1 peptide; gb1-NH2) [gb1]		binding result [3]: no binding
IRFTDGEWTWDDA (also called P4233) [MH2-wZIP4-F1]		binding result [3]: no binding
GEWTWDDA (also called P4236) [MH2-wZIP4-F2]		binding result [3]: no binding
KTWNPATGKWTE [HP7]		binding result [3]: no binding
SWTVENGKVTWK [W2W11-trpzip2]		binding result [3]: no binding
B1		NMR perturbations / release after collagen degradation by a collagenase ([1]; collagenase treatment): gradually came into view while the collagen gel dissembles in the presence of a collagenase
